Our source for the protein stability index values is the supplement of paper PMC10567573.

The labels stand for the following.
B1: FAM116A (parent)
chain: TVHEVDIFRCFCPVFLHSQMLWEL
B2: MYBL2 (parent)
chain: FPNRTDQQCQYRWLRVLNPDLVKG
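Further: lentivirally expressed fusions sorted by FACS into six bins by GFP to DsRed ratio, PSI derived from sequencing read proportions per bin multiplied by bin number.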

The variants in the first data set derive from B1. As to the kind of experiment: protein stability index of a GFP-peptide fusion (GPS, HEK-293T) (PSI 1-6); higher = more stable. The note with it: c terminus: a fixed tail appended.
As for TVHEVDIFRCFCPVFLHSIMLWEL [Q19I], the protein stability index came to 1.82.
The same measure, in the same setting: under TVHEVDIFRCFCPVFLHSSMLWEL [Q19S] stands 2.74; under TVHEVDIFRCFCPVFLHSQMTWEL [L21T], 3.12; under TVHEVDIFRCFCPVFLHSQMIWEL [L21I], 3.87.
In the case of TVHEVDIFRCFCPVFLHSQMQWEL [L21Q], the protein stability index amounted to 3.05.
On the same count and under the same terms, under TVHEVDIFRCFCPVFLHSQMRWEL [L21R] stands 1.77; under TVHEVDIFRCFCPVFLHSQMCWEL [L21C], 3.04; under TVHEVDIFRCFCIVFLHSQMLWEL [P13I], 3.13.
Still for that read-out and setting: under TVHEVDIFRCFCLVFLHSQMLWEL [P13L] stands 1; under TVHEVDIFRCFCKVFLHSQMLWEL [P13K], 2.83; under TVHEVDIFRCFCAVFLHSQMLWEL [P13A], 2.36.
Still for that read-out and setting: under TVHEVDIFRCFCYVFLHSQMLWEL [P13Y] stands 1.72; under TVHEVDIFRCFCNVFLHSQMLWEL [P13N], 1.5.

Variants of B2 are the subject of another data set. The data set is described as above. The note with it: c terminus: a fixed tail appended.
Turning to QPNRTDQQCQYRWLRVLNPDLVKG [F1Q], the protein stability index amounted to 2.76.
Turning to SPNRTDQQCQYRWLRVLNPDLVKG [F1S], the protein stability index came out at 2.51.
Still for that read-out and setting: under PPNRTDQQCQYRWLRVLNPDLVKG [F1P] stands 3; under APNRTDQQCQYRWLRVLNPDLVKG [F1A], 2.54; under VPNRTDQQCQYRWLRVLNPDLVKG [F1V], 2.31.
As to DPNRTDQQCQYRWLRVLNPDLVKG [F1D], the protein stability index turned out to be 3.24.
On the same count and under the same terms, under LPNRTDQQCQYRWLRVLNPDLVKG [F1L] stands 2.08; under GPNRTDQQCQYRWLRVLNPDLVKG [F1G], 3.23; under CPNRTDQQCQYRWLRVLNPDLVKG [F1C], 2.24.
Consider MPNRTDQQCQYRWLRVLNPDLVKG [F1M], for which the protein stability index was determined as 2.37.
The same measure, in the same setting: under WPNRTDQQCQYRWLRVLNPDLVKG [F1W] stands 2.
On to TPNRTDQQCQYRWLRVLNPDLVKG [F1T], for which the protein stability index was 2.75.
The same measure, in the same setting: under IPNRTDQQCQYRWLRVLNPDLVKG [F1I] stands 2.6; under KPNRTDQQCQYRWLRVLNPDLVKG [F1K], 2.14; under HPNRTDQQCQYRWLRVLNPDLVKG [F1H], 2.44.
Still for that read-out and setting: under RPNRTDQQCQYRWLRVLNPDLVKG [F1R] stands 2.79.
Still for that read-out and setting: under NPNRTDQQCQYRWLRVLNPDLVKG [F1N] stands 2.47; under YPNRTDQQCQYRWLRVLNPDLVKG [F1Y], 1.95.
EPNRTDQQCQYRWLRVLNPDLVKG [F1E]: the protein stability index stood at 2.56.
Take FPNRFDQQCQYRWLRVLNPDLVKG [T5F]: the protein stability index was 1.49.
Consider FPNRCDQQCQYRWLRVLNPDLVKG [T5C], for which the protein stability index is 1.57.
On the same count and under the same terms, under FPNRDDQQCQYRWLRVLNPDLVKG [T5D] stands 1.98.
Still for that read-out and setting: under FPNREDQQCQYRWLRVLNPDLVKG [T5E] stands 2.29; under FPNRADQQCQYRWLRVLNPDLVKG [T5A], 2.73.
The same measure, in the same setting: under FPNMTDQQCQYRWLRVLNPDLVKG [R4M] stands 2.2; under FPNCTDQQCQYRWLRVLNPDLVKG [R4C], 1.51; under FPNWTDQQCQYRWLRVLNPDLVKG [R4W], 2.23.
As to FPNQTDQQCQYRWLRVLNPDLVKG [R4Q], the protein stability index stood at 2.19.
Still for that read-out and setting: under FPNLTDQQCQYRWLRVLNPDLVKG [R4L] stands 2.65; under FPNDTDQQCQYRWLRVLNPDLVKG [R4D], 2.27.
On the same count and under the same terms, under FPNKTDQQCQYRWLRVLNPDLVKG [R4K] stands 2.11; under FPNNTDQQCQYRWLRVLNPDLVKG [R4N], 1.94; under FPNFTDQQCQYRWLRVLNPDLVKG [R4F], 2.22.
For the variant FPNGTDQQCQYRWLRVLNPDLVKG [R4G], the protein stability index was 1.74.
As for FPNVTDQQCQYRWLRVLNPDLVKG [R4V], the protein stability index was 1.96.
Take FPNETDQQCQYRWLRVLNPDLVKG [R4E]: the protein stability index was 2.51.
The same measure, in the same setting: under FPNATDQQCQYRWLRVLNPDLVKG [R4A] stands 1.99.
Still for that read-out and setting: under FPNSTDQQCQYRWLRVLNPDLVKG [R4S] stands 1.95; under FPNYTDQQCQYRWLRVLNPDLVKG [R4Y], 1.98.
Same read-out and setting: under FPNTTDQQCQYRWLRVLNPDLVKG [R4T] stands 2.02; under FPNITDQQCQYRWLRVLNPDLVKG [R4I], 1.56.
As to FPNPTDQQCQYRWLRVLNPDLVKG [R4P], the protein stability index stood at 2.64.
FPNHTDQQCQYRWLRVLNPDLVKG [R4H]: the protein stability index stood at 2.47.
The same measure, in the same setting: under FSNRTDQQCQYRWLRVLNPDLVKG [P2S] stands 2.3; under FWNRTDQQCQYRWLRVLNPDLVKG [P2W], 1.61; under FDNRTDQQCQYRWLRVLNPDLVKG [P2D], 2.06.
Take FCNRTDQQCQYRWLRVLNPDLVKG [P2C]: the protein stability index was found to be 1.84.
The same measure, in the same setting: under FYNRTDQQCQYRWLRVLNPDLVKG [P2Y] stands 2.2; under FVNRTDQQCQYRWLRVLNPDLVKG [P2V], 3.52.
On the same count and under the same terms, under FMNRTDQQCQYRWLRVLNPDLVKG [P2M] stands 1.63.
Still for that read-out and setting: under FHNRTDQQCQYRWLRVLNPDLVKG [P2H] stands 1.86; under FENRTDQQCQYRWLRVLNPDLVKG [P2E], 2.67.
For FNNRTDQQCQYRWLRVLNPDLVKG [P2N], the protein stability index was 2.06.
The same measure, in the same setting: under FGNRTDQQCQYRWLRVLNPDLVKG [P2G] stands 1.88; under FRNRTDQQCQYRWLRVLNPDLVKG [P2R], 2.49; under FQNRTDQQCQYRWLRVLNPDLVKG [P2Q], 1.93.
On the same count and under the same terms, under FFNRTDQQCQYRWLRVLNPDLVKG [P2F] stands 1.69.
Still for that read-out and setting: under FINRTDQQCQYRWLRVLNPDLVKG [P2I] stands 1.13.
FANRTDQQCQYRWLRVLNPDLVKG [P2A]: the protein stability index is 2.17.
Still for that read-out and setting: under FTNRTDQQCQYRWLRVLNPDLVKG [P2T] stands 1.81; under FLNRTDQQCQYRWLRVLNPDLVKG [P2L], 2.62.
The same measure, in the same setting: under FKNRTDQQCQYRWLRVLNPDLVKG [P2K] stands 2.3.
On the same count and under the same terms, under FPDRTDQQCQYRWLRVLNPDLVKG [N3D] stands 1.83; under FPVRTDQQCQYRWLRVLNPDLVKG [N3V], 1.91.
With FPSRTDQQCQYRWLRVLNPDLVKG [N3S], the protein stability index turned out to be 1.78.
Same read-out and setting: under FPRRTDQQCQYRWLRVLNPDLVKG [N3R] stands 2.1.
On the same count and under the same terms, under FPPRTDQQCQYRWLRVLNPDLVKG [N3P] stands 1.93; under FPCRTDQQCQYRWLRVLNPDLVKG [N3C], 1.56; under FPQRTDQQCQYRWLRVLNPDLVKG [N3Q], 2.04.
Still for that read-out and setting: under FPWRTDQQCQYRWLRVLNPDLVKG [N3W] stands 1.31; under FPFRTDQQCQYRWLRVLNPDLVKG [N3F], 1.63; under FPERTDQQCQYRWLRVLNPDLVKG [N3E], 1.96.
On to FPIRTDQQCQYRWLRVLNPDLVKG [N3I], for which the protein stability index was 1.82.
Take FPKRTDQQCQYRWLRVLNPDLVKG [N3K]: the protein stability index is 1.77.
For the variant FPLRTDQQCQYRWLRVLNPDLVKG [N3L], the protein stability index is 1.94.
Same read-out and setting: under FPGRTDQQCQYRWLRVLNPDLVKG [N3G] stands 1.77; under FPARTDQQCQYRWLRVLNPDLVKG [N3A], 2.27.
Take FPMRTDQQCQYRWLRVLNPDLVKG [N3M]: the protein stability index was 1.72.
Same read-out and setting: under FPTRTDQQCQYRWLRVLNPDLVKG [N3T] stands 1.91.
Turning to FPHRTDQQCQYRWLRVLNPDLVKG [N3H], the protein stability index is 1.98.
On the same count and under the same terms, under FPYRTDQQCQYRWLRVLNPDLVKG [N3Y] stands 1.87.
